This note sets out measurements from article PMC12439581 (mAbs, 2025).

“And” between values parts separate entries of the source, which are not always exact repeats. Equal values may be shown once.

Assay [1] has as its target T1, biotinylated α-cobratoxin from Naja kaouthia (Naja kaouthia, biotin through amine coupling (NHS-PEG4-Biotin), sites not stated).
T1 chain: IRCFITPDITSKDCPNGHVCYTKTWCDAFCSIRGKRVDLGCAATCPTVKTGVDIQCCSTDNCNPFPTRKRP
Briefly: BLI. Conditions: both partners purified.

Assay [2] concerns the target T2, biotinylated α-elapitoxin-Dpp2d from Dendroaspis polylepis (Dendroaspis polylepis (black mamba), UniProt C0HJD7). Briefly: BLI; […]; association at pH 7.4, dissociation at pH 5.5; 1:1 global fit. Conditions: both partners purified. A general note: In BLI a coated tip is dipped into the sample, and binding shifts an interference pattern.
The target in assay [3] is T2, biotinylated α-elapitoxin-Dpp2d from …. The experiment in a line: BLI; […]; association at pH 7.4, dissociation at pH 7.4; 1:1 global fit, […]. The note with it: both partners purified.
In assay [4] the target is T3, biotinylated α-cobratoxin from Naja kaouthia (Naja kaouthia, UniProt P01391). Briefly: BLI. Conditions: both partners purified.
Assay [5] deals with T3, biotinylated α-cobratoxin from Naja …. The experiment in a line: DELFIA (dissociation-enhanced lanthanide fluorescence immunoassay). Conditions: one partner purified.
Assay [6] concerns the target T1, biotinylated α-cobratoxin from Naja …. The experiment in a line: BLI. The note with it: both partners purified.

T2 sequence (C0HJD7 whole entry): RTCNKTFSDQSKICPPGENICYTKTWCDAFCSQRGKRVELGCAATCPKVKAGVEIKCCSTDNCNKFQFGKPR

B1: A01 Fab (Fab, V domains shown)
VH: QVQLVQSGAEVKKPGSSVKVSCKASGGTFSSYAISWVRQAPGQGLEWMGGIIPIFGTANYAQKFQGRVTITADESTSTAYMELRSLRSDDTAVYYCARDNLGYCSGGSCYSDYYYYYMDVWGQGTLVTVSS
VL: SYELTQPPSVSVAPGRTATITCEGDNIGQQIVHWYQQKPGQAPVAVISSDSDRPSGIPERFSGSNSGNTATLTISRVEAGDEADYYCQVWDSGSDHVVFGGGTKVTVL
With B1, the kon (usually a measure of how fast the partners come together) in assay [1] stood at 44000 M⁻¹ s⁻¹; in assay [3] it was 84000 M⁻¹ s⁻¹. In addition, the koff (usually the rate constant with which the complex falls apart) in assay [2] came to 0.00295 s⁻¹.

B2: G09 Fab (Fab, V domains shown)
VH: QVQLVQSGAEVKKPGSSVKVSCKASGGTFSSYAISWVRQAPGQGLEWMGGIIPIFGTANYAQKFQGRVTITADESTSTAYMELRSLRSDDTAVYYCARDNLGYCSGGSCYSDYYYYYMDVWGQGTLVTVSS
VL: SYELTQPPSVSVAPGRTATITCEGDNIGQQIVHWYRQKSDQAPVVVVYDGSRRPSGIPERFSGSNSGNTATLTISRVEAGDEADYYCQVWDITSDHVVFGGGTQLTVL
Turning to B2, in assay [1], binding was put at a Kd of 4.2 ± 2.8 nM and the kon was 71000 M⁻¹ s⁻¹. This molecule also yielded an off-rate constant (koff) in assay [2] of 0.00035 s⁻¹. For the same molecule, in assay [3], binding was characterised by a dissociation constant (Kd) of 1 ± 0.5 nM, the koff was determined as 0.00015 s⁻¹ and the kon worked out at 156000 M⁻¹ s⁻¹.

B3: E01 Fab (Fab, V domains shown)
VH: QVQLVQSGAEVKKPGSSVKVSCKASGGTFSSYAISWVRQAPGQGLEWMGGIIPIFGTANYAQKFQGRVTITADESTSTAYMELRSLRSDDTAVYYCARDNLGYCSGGSCYSDYYYYYMDVWGQGTLVTVSS
VL: NFMLTQPRSVSESPGKTVTISCTRSSGSIGSDYVHWYQQRPGSSPTTVIYEDNRRPSGVPDRFSGSIASSANSASLTISGLRPEDEADYYCQSYDSTTNHVVFGGGTKVTVL
On to B3, for which the binding result in assay [4] was “binds”.

B4: A01 scFv with C-terminal 6xHis-FLAG extension (scFv, V domains shown)
VH: QVQLVQSGAEVKKPGSSVKVSCKASGGTFSSYAISWVRQAPGQGLEWMGGIIPIFGTANYAQKFQGRVTITADESTSTAYMELRSLRSDDTAVYYCARDNLGYCSGGSCYSDYYYYYMDVWGQGTLVTVSS
VL: SYELTQPPSVSVAPGRTATITCEGDNIGQQIVHWYQQKPGQAPVAVISSDSDRPSGIPERFSGSNSGNTATLTISRVEAGDEADYYCQVWDSGSDHVVFGGGTKVTVL
notes: also called original A01 scFv; source: E. coli BL21(DE3); culture supernatant (DELFIA); purified (HisTrap, SEC)
On to B4, for which, in assay [5], the “pH 7.4/pH 5.8 ratio of toxin remaining bound (TRF signal)” value was ~12 and the “pH 7.4/pH 5.8 ratio of toxin remaining bound (fold-difference)” value is ~13.4 fold.

B5: B11 Fab (Fab, V domains shown)
VH: QVQLVQSGAEVKKPGSSVKVSCKASGGTFSSYAISWVRQAPGQGLEWMGGIIPIFGTANYAQKFQGRVTITADESTSTAYMELRSLRSDDTAVYYCARDNLGYCSGGSCYSDYYYYYMDVWGQGTLVTVSS
VL: SYELTQPPSVSVAPGQTATITCGGHNIGSNIVHWYHQKPGQAPELVISHNTNRPSGIPERFSGSNSGSTATLTISRVEAVDEADYYCQVWDSSSEHVVFGGGTKVTVL
Consider B5, for which the Kd – broadly, the constant that tells how readily two partners part at equilibrium – came out at 5.7 ± 1.1 nM in assay [1] and 1.4 ± 0.1 nM in assay [3]. Moreover, the kon was found to be 59000 M⁻¹ s⁻¹ in assay [1] and 69000 M⁻¹ s⁻¹ in assay [3]. For the same molecule, the koff in assay [2] is 0.00049 s⁻¹; in assay [3] it was 9e-05 s⁻¹.

B6: 368_01_C05 Fab with the CDR-L3 glycosylation site at Asn95 removed (Fab, V domains shown)
VH: QVQLVQSGAEVKKPGSSVKVSCKASGGTFSSYAISWVRQAPGQGLEWMGGIIPIFGTANYAQKFQGRVTITADESTSTAYMELRSLRSDDTAVYYCARDNLGYCSGGSCYSDYYYYYMDVWGQGTLVTVSS
VL: NFMLTQPHSVSESPGKTVTISCTRSSGSIASTYVHWYQQRPGSAPTTVIYEDNQRPSGVPDRFSGSIDSSSNSASLTISGLKTEDEADYYCQSYDSSSGSVVFGGGTKLTVL
notes: also called parent mAb; parental mAb
Regarding B6, in assay [4], the binding result is on record as “binds”.

B7: A04 Fab (Fab, V domains shown)
VH: QVQLVQSGAEVKKPGSSVKVSCKASGGTFSSYAISWVRQAPGQGLEWMGGIIPIFGTANYAQKFQGRVTITADESTSTAYMELRSLRSDDTAVYYCARDNLGYCSGGSCYSDYYYYYMDVWGQGTLVTVSS
VL: SYELTQPPSMSVAPGQTARITCGGDYIGGESVHWYQQKPGRAPVAVVYDDTHRPSGIPERFSGANSGNTATLTISKVEAGDEADYYCQVWDVSSDHVVFGGGTKLTVL
Take B7: in assay [1], the Kd stood at 15.3 ± 14 nM and the kon was 62000 M⁻¹ s⁻¹. Also, the dissociation rate constant (koff) in assay [2] was 0.00024 s⁻¹. Besides, in assay [3], the Kd is 0.6 ± 0.4 nM, the koff was 9e-05 s⁻¹ and the on-rate (kon) stood at 161000 M⁻¹ s⁻¹.

B8: D11_Y49S scFv (scFv, V domains shown)
VH: QVQLVQSGAEVKKPGSSVKVSCKASGGTFSSYAISWVRQAPGQGLEWMGGIIPIFGTANYAQKFQGRVTITADESTSTAYMELRSLRSDDTAVYYCARDNLGYCSGGSCYSDYYYYYMDVWGQGTLVTVSS
VL: NFMLTQPRSVSESPGKTVTISCTRSSGSIGSDYVHWYQQRPGSSPTTVISEDNQRPSGVPDRFSGSIDSSSNSASLTISGLKTEDEADYYCQSYDRSNHEVVFGGGTKLTVL
notes: source: E. coli BL21(DE3)
As for B8, in assay [6], the Kd was found to be 48.8 nM; the koff was 0.00195 s⁻¹ and 0.00416 s⁻¹; the kon amounted to 40000 M⁻¹ s⁻¹.

B9: A01 scFv with His34 (CDR-L1) substituted to alanine (scFv, V domains shown)
VH: QVQLVQSGAEVKKPGSSVKVSCKASGGTFSSYAISWVRQAPGQGLEWMGGIIPIFGTANYAQKFQGRVTITADESTSTAYMELRSLRSDDTAVYYCARDNLGYCSGGSCYSDYYYYYMDVWGQGTLVTVSS
VL: SYELTQPPSVSVAPGRTATITCEGDNIGQQIVAWYQQKPGQAPVAVISSDSDRPSGIPERFSGSNSGNTATLTISRVEAGDEADYYCQVWDSGSDHVVFGGGTKVTVL
notes: also called A01-H34A; source: E. coli BL21(DE3), in culture supernatant
Turning to B9, in assay [5], the “pH 7.4/pH 5.8 ratio of toxin remaining bound (TRF signal)” value was determined as 1.6.

B10: C05 Fab, parental mAb 368_01_C05, with the N-glycosylation site of CDR-L3 removed (C05-NS) (Fab, V domains shown)
VH: QVQLVQSGAEVKKPGSSVKVSCKASGGTFSSYAISWVRQAPGQGLEWMGGIIPIFGTANYAQKFQGRVTITADESTSTAYMELRSLRSDDTAVYYCARDNLGYCSGGSCYSDYYYYYMDVWGQGTLVTVSS
VL: NFMLTQPHSVSESPGKTVTISCTRSSGSIASTYVHWYQQRPGSAPTTVIYEDNQRPSGVPDRFSGSIDSSSNSASLTISGLKTEDEADYYCQSYDSSSGSVVFGGGTKLTVL
For the molecule B10, in assay [1], binding was characterised by a dissociation constant (Kd) of 71.2 ± 5.4 nM; the koff was 0.00366 s⁻¹ and 0.00946 s⁻¹; the kon turned out to be 51000 M⁻¹ s⁻¹. Further, the koff in assay [2] worked out at 0.00072 s⁻¹. For the same molecule, in assay [3], the Kd worked out at 4.6 ± 0.47 nM, the koff was determined as 0.00034 s⁻¹ and the kon was determined as 76000 M⁻¹ s⁻¹.

B11: D11_Y49A scFv (scFv, V domains shown)
VH: QVQLVQSGAEVKKPGSSVKVSCKASGGTFSSYAISWVRQAPGQGLEWMGGIIPIFGTANYAQKFQGRVTITADESTSTAYMELRSLRSDDTAVYYCARDNLGYCSGGSCYSDYYYYYMDVWGQGTLVTVSS
VL: NFMLTQPRSVSESPGKTVTISCTRSSGSIGSDYVHWYQQRPGSSPTTVIAEDNQRPSGVPDRFSGSIDSSSNSASLTISGLKTEDEADYYCQSYDRSNHEVVFGGGTKLTVL
notes: source: E. coli BL21(DE3)
With B11, in assay [6], binding was put at a Kd of 68.8 nM; the koff is 0.0018 s⁻¹ and 0.00355 s⁻¹; the kon came to 26200 M⁻¹ s⁻¹.

B12: A12 Fab (Fab, V domains shown)
VH: QVQLVQSGAEVKKPGSSVKVSCKASGGTFSSYAISWVRQAPGQGLEWMGGIIPIFGTANYAQKFQGRVTITADESTSTAYMELRSLRSDDTAVYYCARDNLGYCSGGSCYSDYYYYYMDVWGQGTLVTVSS
VL: NFMLTQPHSVSESPGKTVTFSCTRSSGRIVSDYVHWYQQRPGSAPTTVIYEDNQRPSGVPDRFSGSIDSSSNSASLTISGLKTEDEADYYCQSYDSSNAYVVFGGGTKVTVL
As for B12, the binding result in assay [4] is given as “binds”.

B13: D11_E50A scFv (scFv, V domains shown)
VH: QVQLVQSGAEVKKPGSSVKVSCKASGGTFSSYAISWVRQAPGQGLEWMGGIIPIFGTANYAQKFQGRVTITADESTSTAYMELRSLRSDDTAVYYCARDNLGYCSGGSCYSDYYYYYMDVWGQGTLVTVSS
VL: NFMLTQPRSVSESPGKTVTISCTRSSGSIGSDYVHWYQQRPGSSPTTVIYADNQRPSGVPDRFSGSIDSSSNSASLTISGLKTEDEADYYCQSYDRSNHEVVFGGGTKLTVL
notes: source: E. coli BL21(DE3)
Take B13: in assay [6], binding was put at a Kd of 158 nM; the koff is 0.00469 s⁻¹ and 0.0134 s⁻¹; the association rate constant (kon) is 29700 M⁻¹ s⁻¹.

B14: D11 scFv with C-terminal 6xHis-FLAG extension (scFv, V domains shown)
VH: QVQLVQSGAEVKKPGSSVKVSCKASGGTFSSYAISWVRQAPGQGLEWMGGIIPIFGTANYAQKFQGRVTITADESTSTAYMELRSLRSDDTAVYYCARDNLGYCSGGSCYSDYYYYYMDVWGQGTLVTVSS
VL: NFMLTQPRSVSESPGKTVTISCTRSSGSIGSDYVHWYQQRPGSSPTTVIYEDNQRPSGVPDRFSGSIDSSSNSASLTISGLKTEDEADYYCQSYDRSNHEVVFGGGTKLTVL
notes: also called original D11; source: E. coli BL21(DE3); culture supernatant (DELFIA); purified (HisTrap, SEC)
Take B14: in assay [5], the “pH 7.4/pH 5.8 ratio of toxin remaining bound (TRF signal)” value was ~1.3 and the “pH 7.4/pH 5.8 ratio of toxin remaining bound (fold-difference)” value was ~1.2 fold.

B15: A01 scFv (scFv, V domains shown)
VH: QVQLVQSGAEVKKPGSSVKVSCKASGGTFSSYAISWVRQAPGQGLEWMGGIIPIFGTANYAQKFQGRVTITADESTSTAYMELRSLRSDDTAVYYCARDNLGYCSGGSCYSDYYYYYMDVWGQGTLVTVSS
VL: SYELTQPPSVSVAPGRTATITCEGDNIGQQIVHWYQQKPGQAPVAVISSDSDRPSGIPERFSGSNSGNTATLTISRVEAGDEADYYCQVWDSGSDHVVFGGGTKVTVL
In the case of B15, in assay [6], the affinity, expressed as Kd, was 52.2 nM and the kon turned out to be 43200 M⁻¹ s⁻¹.

B16: D11 scFv (scFv, V domains shown)
VH: QVQLVQSGAEVKKPGSSVKVSCKASGGTFSSYAISWVRQAPGQGLEWMGGIIPIFGTANYAQKFQGRVTITADESTSTAYMELRSLRSDDTAVYYCARDNLGYCSGGSCYSDYYYYYMDVWGQGTLVTVSS
VL: NFMLTQPRSVSESPGKTVTISCTRSSGSIGSDYVHWYQQRPGSSPTTVIYEDNQRPSGVPDRFSGSIDSSSNSASLTISGLKTEDEADYYCQSYDRSNHEVVFGGGTKLTVL
Take B16: in assay [6], the affinity, expressed as Kd, was 44.4 nM; the koff is 0.00177 s⁻¹ and 0.00189 s⁻¹; the kon was determined as 39900 M⁻¹ s⁻¹.
